Data published in patent publication US20240358849A1 (SUZHOU FUSE BIOSCIENCES, published 2024).

Tests used:
[1] = target: T1, IL-2hex, mutant human IL-2 (deltaA1/T3A/F42A/Y45A/L72G/C125S) (human, UniProt P60568 22-153); experiment: BLI per 6.1.3; column head IL-2 KD
T1 chain: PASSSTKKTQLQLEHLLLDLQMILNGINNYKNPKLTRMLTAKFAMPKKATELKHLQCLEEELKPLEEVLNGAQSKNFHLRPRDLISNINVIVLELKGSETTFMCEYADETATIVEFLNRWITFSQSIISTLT

[2] = target: T1, IL-2hex, mutant human IL-2 …; experiment: cell-based or functional assay
[3] = target: T2, human FAP expressed on cells (HEK 293T-hFAP-E5; ExpiCHO-hFAP) (human, UniProt Q12884 1-760); experiment: cell-based or functional assay
[4] = target: T1, IL-2hex, mutant human IL-2 …; experiment: Affinity (nM), Table 13B
[5] = target: T3, human Fibroblast Activation Protein (FAP), soluble antigen (human, UniProt Q12884 26-760, biotinylated when immobilized on streptavidin sensors); experiment: Affinity (nM), Table 13B
T3 construct: also called hFAP; biotinylated FAP

[6] = target: T3, human Fibroblast Activation Protein …; experiment: BLI per 6.1.3
[7] = target: T2, human FAP expressed on cells (HEK …); experiment: flow cytometry, 1 µg/mL antibody
[8] = target: T3, human Fibroblast Activation Protein …; experiment: BLI, small-scale crude lysate

Row | Kd [1] | EC50 of HEK-Blue IL2 assay (pM) with HEK 293T; variant as masking moiety of a configuration 3 immunoconjugate [2] | EC50 of HEK-Blue IL2 assay (pM) with HEK 293T-hFAP-E5; variant as masking moiety of a configuration 3 immunoconjugate [3] | Kd [4] | Kd [5] | Kd [6] | binding result [7] | Kd [8] | Binder
1 | – | – | – | – | – | – | binds | – | two-in-one antibody D049 (bispecific antibody, V domains shown) VH: EVQLVESGGGLVQPGGSLRLSCAASGFTFFSYWMSWVRQAPGKGLEWVSTISPYDSSTAYADSVKGRFTISRDNSKNTLYLQMNSLRAEDTAVYYCARLLYGTWFDYWGQGTLVTVSS VL: DIQMTQSPSSLSASVGDRVTITCRASQIVRTYLNWYQQKPGKAPKLLIYAASSLQSGVPSRFSGSGSGTDFTLTISSLQPEDFATYYCQQGAQLQPTFGQGTKVEIKR
2 | 419 nM | 6060 pM | 27 pM | 419 nM | 2 nM | 1.98 nM | – | – | D029 HV2LV2 (bispecific antibody, V domains shown, also called Rev1-Q27G:P94Y:L96F/S55L:S32F) VH: EVQLVESGGGLVQPGGSLRLSCAASGFTFTWFFMSWVRQAPGKGLEWVSWIGPSGLYTDYADSVKGRFTISRDNSKNTLYLQMNSLRAEDTAVYYCARSQYGRYYSPDYYFDYWGQGTLVTVSS VL: DIQMTQSPSSLSASVGDRVTITCRASGALGFYLNWYQQKPGKAPKLLIYAASSLSSGVPSRFSGSGSGTDFTLTISSLQPEDFATYYCQQGRTYPFTFGQGTKVEIKR
3 | – | – | – | – | – | – | – | ~100 nM | D029 T30R:S55L/LV1 (bispecific antibody, V domains shown, also called Rev1/S55L:T30R) VH: EVQLVESGGGLVQPGGSLRLSCAASGFTFRWSFMSWVRQAPGKGLEWVSWIGPSGLYTDYADSVKGRFTISRDNSKNTLYLQMNSLRAEDTAVYYCARSQYGRYYSPDYYFDYWGQGTLVTVSS VL: DIQMTQSPSSLSASVGDRVTITCRASQALGFYLNWYQQKPGKAPKLLIYAASSLSSGVPSRFSGSGSGTDFTLTISSLQPEDFATYYCQQGRTPPLTFGQGTKVEIKR
4 | 1100 nM | 4120 pM | 208 pM | 528 nM | 2.3 nM | 1.8 nM | – | – | D029 HV3LV4 (bispecific antibody, V domains shown, also called D029-Rev1:Q27G:P94Y/S55L:T30R:S32F) VH: EVQLVESGGGLVQPGGSLRLSCAASGFTFRWFFMSWVRQAPGKGLEWVSWIGPSGLYTDYADSVKGRFTISRDNSKNTLYLQMNSLRAEDTAVYYCARSQYGRYYSPDYYFDYWGQGTLVTVSS VL: DIQMTQSPSSLSASVGDRVTITCRASGALGFYLNWYQQKPGKAPKLLIYAASSLSSGVPSRFSGSGSGTDFTLTISSLQPEDFATYYCQQGRTYPLTFGQGTKVEIKR
5 | – | – | – | – | – | – | – | ~100 nM | D029 VH-S55L:T30R (bispecific antibody, V domains shown) VH: EVQLVESGGGLVQPGGSLRLSCAASGFTFRWSFMSWVRQAPGKGLEWVSWIGPSGLYTDYADSVKGRFTISRDNSKNTLYLQMNSLRAEDTAVYYCARSQYGRYYSPDYYFDYWGQGTLVTVSS VL: DIQMTQSPSSLSASVGDRVTITCRASQDGGNYLNWYQQKPGKAPKLLIYGASTLYSGVPSRFSGSGSGTDFTLTISSLQPEDFATYYCQQGRTPPLTFGQGTKVEIKR
6 | 331 nM | 5330 pM | 186 pM | 100 nM | 100 nM | 3.58 nM | – | – | D029 HV3LV2 (bispecific antibody, V domains shown, also called D029L-Rev1:Q27G:P94Y:L96F/S55L:T30R:S32F) VH: EVQLVESGGGLVQPGGSLRLSCAASGFTFRWFFMSWVRQAPGKGLEWVSWIGPSGLYTDYADSVKGRFTISRDNSKNTLYLQMNSLRAEDTAVYYCARSQYGRYYSPDYYFDYWGQGTLVTVSS VL: DIQMTQSPSSLSASVGDRVTITCRASGALGFYLNWYQQKPGKAPKLLIYAASSLSSGVPSRFSGSGSGTDFTLTISSLQPEDFATYYCQQGRTYPFTFGQGTKVEIKR
7 | – | – | – | – | – | – | – | ~100 nM | D029 LV4 (Rev1:Q27G:P94Y) (bispecific antibody, V domains shown) VH: EVQLVESGGGLVQPGGSLRLSCAASGFTFTWSFMSWVRQAPGKGLEWVSWIGPSGSYTDYADSVKGRFTISRDNSKNTLYLQMNSLRAEDTAVYYCARSQYGRYYSPDYYFDYWGQGTLVTVSS VL: DIQMTQSPSSLSASVGDRVTITCRASGALGFYLNWYQQKPGKAPKLLIYAASSLSSGVPSRFSGSGSGTDFTLTISSLQPEDFATYYCQQGRTYPLTFGQGTKVEIKR

The remaining lines, values behind:

Row | Binder | Kd [1] | EC50 of HEK-Blue IL2 assay (pM) with HEK 293T; variant as masking moiety of a configuration 3 immunoconjugate [2] | EC50 of HEK-Blue IL2 assay (pM) with HEK 293T-hFAP-E5; variant as masking moiety of a configuration 3 immunoconjugate [3] | Kd [4] | Kd [5] | Kd [6] | binding result [7] | Kd [8]
8 | D029 HV2LV1 (bispecific antibody, V domains shown, also called Rev1/S55L:S32F) VH: EVQLVESGGGLVQPGGSLRLSCAASGFTFTWFFMSWVRQAPGKGLEWVSWIGPSGLYTDYADSVKGRFTISRDNSKNTLYLQMNSLRAEDTAVYYCARSQYGRYYSPDYYFDYWGQGTLVTVSS VL: DIQMTQSPSSLSASVGDRVTITCRASQALGFYLNWYQQKPGKAPKLLIYAASSLSSGVPSRFSGSGSGTDFTLTISSLQPEDFATYYCQQGRTPPLTFGQGTKVEIKR | 528 nM | 9260 pM | 78 pM | 1100 nM | 1.8 nM | 2.31 nM | – | –
9 | antibody D003 (antibody, V domains shown) VH: EVQLVESGGGLVQPGGSLRLSCAASGFTFYTYIMSWVRQAPGKGLEWVSSIGPSYGDTIYADSVKGRFTISRDNSKNTLYLQMNSLRAEDTAVYYCARTISYSQYAYGYSFDYWGQGTLVTVSS VL: DIQMTQSPSSLSASVGDRVTITCRASQSISSYLNWYQQKPGKAPKLLIYAASSLQSGVPSRFSGSGSGTDFTLTISSLQPEDFATYYCQQTRSYLPTFGQGTKVEIKR | – | – | – | – | – | – | binds | –
10 | D029VH T30R:S55L/LV4 (bispecific antibody, V domains shown, also called Rev1:Q27G:P94Y/S55L:T30R) VH: EVQLVESGGGLVQPGGSLRLSCAASGFTFRWSFMSWVRQAPGKGLEWVSWIGPSGLYTDYADSVKGRFTISRDNSKNTLYLQMNSLRAEDTAVYYCARSQYGRYYSPDYYFDYWGQGTLVTVSS VL: DIQMTQSPSSLSASVGDRVTITCRASGALGFYLNWYQQKPGKAPKLLIYAASSLSSGVPSRFSGSGSGTDFTLTISSLQPEDFATYYCQQGRTYPLTFGQGTKVEIKR | – | – | – | – | – | – | – | ~100 nM
11 | D029-HV1LV2 (bispecific antibody, V domains shown, also called Rev1:Q27G:P94Y:L96F/S55L; D029HVILV2 (so in the source)) VH: EVQLVESGGGLVQPGGSLRLSCAASGFTFTWSFMSWVRQAPGKGLEWVSWIGPSGLYTDYADSVKGRFTISRDNSKNTLYLQMNSLRAEDTAVYYCARSQYGRYYSPDYYFDYWGQGTLVTVSS VL: DIQMTQSPSSLSASVGDRVTITCRASGALGFYLNWYQQKPGKAPKLLIYAASSLSSGVPSRFSGSGSGTDFTLTISSLQPEDFATYYCQQGRTYPFTFGQGTKVEIKR | – | – | – | – | – | – | – | ~100 nM
12 | D029 HV5LV1 (bispecific antibody, V domains shown, also called Rev1/S55L:T30R:S32A) VH: EVQLVESGGGLVQPGGSLRLSCAASGFTFRWAFMSWVRQAPGKGLEWVSWIGPSGLYTDYADSVKGRFTISRDNSKNTLYLQMNSLRAEDTAVYYCARSQYGRYYSPDYYFDYWGQGTLVTVSS VL: DIQMTQSPSSLSASVGDRVTITCRASQALGFYLNWYQQKPGKAPKLLIYAASSLSSGVPSRFSGSGSGTDFTLTISSLQPEDFATYYCQQGRTPPLTFGQGTKVEIKR | 100 nM | 5630 pM | 41 pM | 331 nM | 3.6 nM | > 100 nM | – | –
13 | D029-HV1LV4 (bispecific antibody, V domains shown, also called Rev1:Q27G:P94Y/S55L; D029HVILV4 (so in the source)) VH: EVQLVESGGGLVQPGGSLRLSCAASGFTFTWSFMSWVRQAPGKGLEWVSWIGPSGLYTDYADSVKGRFTISRDNSKNTLYLQMNSLRAEDTAVYYCARSQYGRYYSPDYYFDYWGQGTLVTVSS VL: DIQMTQSPSSLSASVGDRVTITCRASGALGFYLNWYQQKPGKAPKLLIYAASSLSSGVPSRFSGSGSGTDFTLTISSLQPEDFATYYCQQGRTYPLTFGQGTKVEIKR | – | – | – | – | – | – | – | ~100 nM
14 | D029VH T30R:S55L/LV2 (bispecific antibody, V domains shown, also called Rev1:Q27G:P94Y:L96F/S55L:T30R) VH: EVQLVESGGGLVQPGGSLRLSCAASGFTFRWSFMSWVRQAPGKGLEWVSWIGPSGLYTDYADSVKGRFTISRDNSKNTLYLQMNSLRAEDTAVYYCARSQYGRYYSPDYYFDYWGQGTLVTVSS VL: DIQMTQSPSSLSASVGDRVTITCRASGALGFYLNWYQQKPGKAPKLLIYAASSLSSGVPSRFSGSGSGTDFTLTISSLQPEDFATYYCQQGRTYPFTFGQGTKVEIKR | – | – | – | – | – | – | – | ~100 nM
15 | D029 HV2LV4 (bispecific antibody, V domains shown, also called Rev1-Q27G:P94Y/S55L:S32F) VH: EVQLVESGGGLVQPGGSLRLSCAASGFTFTWFFMSWVRQAPGKGLEWVSWIGPSGLYTDYADSVKGRFTISRDNSKNTLYLQMNSLRAEDTAVYYCARSQYGRYYSPDYYFDYWGQGTLVTVSS VL: DIQMTQSPSSLSASVGDRVTITCRASGALGFYLNWYQQKPGKAPKLLIYAASSLSSGVPSRFSGSGSGTDFTLTISSLQPEDFATYYCQQGRTYPLTFGQGTKVEIKR | 1590 nM | 5140 pM | 43 pM | 1590 nM | 1.5 nM | 1.53 nM | – | –
